Assay results taken from publication PMC11653366 (2024).

T1: F*-PLLP
T1 chain: LASRPLPLLP

B1: F*-p40 (peptide)
chain: APTYSPPPPP

Legend:
Assay in all cases: fluorescence anisotropy
F*-PLLP = biological target: T1, F*-PLLP
F*-p40 = biological target: B1
Src SH3 84-145 = Src SH3 84-145 (Homo sapiens, UniProt P12931)

Row | Kd (F*-PLLP) [µM] | Kd (F*-p40) [µM] | Kd (Src SH3 84-145) [µM] | Binder
1 | 140 | 130 | – | SrcAbl SH3 84-145 (protein) not shown
2 | > 1000 | 210 | – | AblSrc SH3 SH3 (protein) PSENDPNLFVALYDFESRTETTLSITKGEKLRVLGYNTEGDWCEAQTKNGQGWVPSNYITPVNSLEK
3 | – | – | > 1000 | B1
